In the DeepSol protein solubility set:

Experiment: soluble on expression in E. coli; label from the status in PepcDB or PDB records

Soluble on expression in E. coli, soluble:
MIEKKIHYVWFGNAKSEKVLKCIESWKKNLPDYEIIEWNEKNFNIEEELKSNKFFRECYNRKLWAFVSDYVRVKVLYNYGGIYLDTDMEIIKDITPLLDADMFLGYENEDTMSFGIVGVIPKHKVFKKMYEFYQNEIWKSPLHIVTSILTEILEKEYHGKYRENNINIYPREYFYPFNHDEEFTKDCITGNTYAIHWWGKSWKKNPKVYFLKYKHLPWWKKYPKHVAKLINYYFKNLFNFRKELEHHHHHH, MIERGKFRSLTLINWNGFFARTFDLDELVTTLSGGNGAGKSTTMAAFVTALIPDLTLLHFRNTTEAGATSGSRDKGLHGKLKAGVCYSMLDTINSRHQRVVVGVRLQQVAGRDRKVDIKPFAIQGLPMSVQPTQLVTETLNERQARVLPLNELKDKLEAMEGVQFKQFNSITDYHSLMFDLGIIARRLRSASDRSKFYRLIEASLYGGISSAITRSLRDYLLPENSG, MIGGSLDAFIGSVHRMAAALDGTIELVCGAFSSNAARSIQTGEALHLPKERIYASYEEMIVQEAQLPADVRMQFVSIVTPNHLHAQPALLALKHGFHVLCEKPLAFSVAEAEQLGIQVKETGLLFGLTHTYTAYPMVKEARDLIAKGKLGTIRKIIVEYPQGWLSAPIESDGQKQAGWRTDPAQAGLSCCVGDIGTHAENIAEYITGLKITELSADVSSVVAGRKLDDDANILLRFDNGAKGVLIASQIANGEENELKIRVYGEHAGLEWLQSEPNTLIVKQNDQPTQLRRAGANHSYLSEHARLHCRIPAGHPEGYIEAMANIYRNFSKAVHSFEDQITHNPLLDYPTIEDGIRGMKFIETVIISGKENATWKQLLEHHHHHH, MIIATAGHVDHGKTTLLQAITGVNADRLPEEKKRGMTIDLGYAYWPQPDGRVPGFIDVPGHEKFLSNMLAGVGGIDHALLVVACDDGVMAQTREHLAILQLTGNPMLTVALTKADRVDEARVDEVERQVKEVLREYGFAEAKLFITAATEGRGMDALREHLLQLPEREHASQHSFRLAIDRAFTVKGAGLVVTGTALSGEVKVGDSLWLTGVNKPMRVRALHAQNQPTETANAGQRIALNIAGDAEKEQINRGDWLLADVPPEPFTRVIVELQTHTPLTQWQPLHIHHAASHVTGRVSLLEDNLAELVFDTPLWLADNDRLVLRDISARNTLAGARVVMLNPPRRGKRKPEYLQWLASLARAQSDADALSVHLERGAVNLADFAWARQLNGEGMRELLQQPGYIQAGYSLLNAPVAARWQRKILDTLATYHEQHRDEPGPGRERLRRMALPMEDEALVLLLIEKMRESGDIHSHHGWLHLPDHKAGFSEEQQAIWQKAEPLFGDEPWWVRDLAKETGTDEQAMRLTLRQAAQQGIITAIVKDRYYRNDRIVEFANMIRDLDQECGSTCAADFRDRLGVGRKLAIQILEYFDRIGFTRRRGNDHLLRDALLFPEK, MIICKTPREIEIMREAGRIVALTHQELKQHITPGITTKELDQIAEKTIQKYGATPSFKGYNGFPGSICASVNEELVHGIPGKRKLKEGDIISIDIGAKYNGYHGDSAWTYPVGNISESVQKLLDVTEKSLYLGLEQVKPGERLSNISHAVQTHAEENGFSIVREYVGHGIGQDLHEDPQIPHYGPPNRGPRLKPGMVICVEPMVNQGRRYVKTLSDDWTVVTVDGKWCAHFEHTIALTEAGYEILTTL, MIIQIEEYFIGMIFKGNQLVRNTIPLRREEIFNFMDGEVVSNPEDEHLKVAEIILKLYFAEIDDKKVRELISYKLEVPEFTKKVLDIVKDIEFGKTLTYGDIAKKLNTSPRAVGMALKRNPLPLIIPCHRVVAKNSLGGYSYGLDKKKFILERERLNMVSFKFNKVY

Soluble on expression in E. coli, not soluble:
MIEEPVDDVIKHGPKTGTPETKTVEIPFETKREFNPKLQPGEERVKQEGQPGSKTITTPITVNPLTGEKVGEGQPTEEITKQPVDKIVEFGGEKPKDPKGPENPEKPSRPTHPSGPVNPNNPGLSKDRAKPNGPVHSMDKNDKVKKSKIAKESVANQEKKRAELPKTGLESTQKGLIFSSIIGIAGLMLLARRRKN, MIEINNLSKRYRNKQIFNHLTMSFDSNRLTVLLGDNGAGKSTLLRMIAGIEKANDGTINYFGEKWNQRQIQNHIGYVPQDIALFEHMTVAENIKFFKSLCKNPINDTTINEYLQQLNFDDTSAKVSTLSGGNKRKINILVGLLGQPRILILDEPTVGIDLKSRHDIHQLLNIMKSKCLIILTTHHLDEVEALADDIKLIGQDPFYQHVLEDKQWTYTYY, MIELKPPDVMPNGNIGTPSQYFLEQIRLCRLPTTVISKLGIQTQKRKKKFGEVDFQYEKTDSCKAEKIKCETIPGVEDELEDPTERVRMNQNPEDNDDGKDDDNDQCEEWERHEALHEDVTEQDRAKPRKYEEEMEVTWEKGGPGLVWYTDKNYWDEREKGTDCDWAWADDWDVDYSVYYEGKSAGDMDAKAAIEMRNDDLMRSGKLEQSAFTKKRNPHNLGTTRKRRNSDGGGSSEKASENLQKGIGGSMLAKMGWKPGTGLGKNEQGRVVPVAVYVEEDGQSSKEKTGFGYRGEKLSRVVQKKTIRHVIASAFDSVTDREQCEDKQSEEELHGEILFRRSEVTKMNKFQVLKLQFPKRNIQKTKTFQNFGKLSKCTQLYRFFLMN, MIEWQDLHHSELSVSQLYALLQLRCAVFVVEQNCPYQDIDGDDLTGDNRHILGWKNDELVAYARILKSDDDLEPVVIGRVIVSEALRGEKVGQQLMSKTLETCTHHWPDKPVYLGAQAHLQNFYQSFGFIPVTEVYEEDGIPHIGMAREVIQALEHHHHHH, MIEWQLAELIPHAGDMILIDQVLDFDEEQINTRLTVRADGLFNQPDGSLPAWLGIELMAQSVAAYAGCQARSKGEAVKLGFLLGSRKFDCNVARFPAGSELHIHAIRSLQDDSGMGVFECTLTGPDITALARLNVYCPPNTADYLAEGAPALEHHHHHH, MIFDGHSDTWADVTIRRLNGEKDVFRRIHLDNFKRANIEGAIFVIWIDPPYDKEPEKRVKQIISSIKDEIEDMKDVVNIVKKYSDIDKGISENKINILIGLEGLSHIGRNIDLLDYFYKEVGARHASLTWNEQNELATGCLGDENRGLTEIGKKAVNKMEKLGMIVDVSHLNEKSFWDLMSVASKPVIASHSNARSLCDAKRNLTDNQLKEISNTGGLVGINSFRGFTNSNPKKQDLIHLVDHIDYMVNLIGIEHVSFGFDFSDYLGKETIGSFTGNASVPSVDGLESTHTAQNIVVELENRGYKKKDIELISSGNFYRLFKDILK, MIGMMNSGAESSVEFYAAARQSSLYEPRKKSSQSRTYTPEGRVLVNGAPLSPTLDPQDLWKNMIIKTAAQKMIRENCEKKETGPMATIRRLSEKLKLKKSKSSAAMMNLDLDLDQKIPEVSEIESSSTTAVPQSPQQFVTNIRIEEANPVFFVQQSESLDRPHMLFEETSVLARLLEESSQIDKMEKDFAEKDSGKGSIDDDSVVVHKL, MIHSLFFHNNTKGTPSMKHPIDSISAEIEDEQAYVDKLFGKLDEEVVAANQRLNDVMLHVDPANPDAEALVRRETEYHALNEKIDRLNIAQLGLVFGRIDVTAQRTDLIDNWVAGTDNVDRRYIGRMGLDDRQNDYRTLLLDWRAPLARPFYLATTAHPEGVLHRRHIRTQGRSVVGVDDEVLSGVSAESAHSERADVVSETALYRAMCSARTGHMHSIVETIQREQDDIIRDPTRGVMVVEGGPGTGKTAVALHRVAYLLYTWRDQLAKTGVLIVGPNRSFLDYISRVLPELGETGVVLSTVGDLYPGISGTAVEDSLAREIKGSEEMVTVLRRLVQEYQQIPSEPFTIKIDGLELTVTPDIVKKARTRARRSRRPHNEARPLFTEHLTELLSHQMADLIGADPMGGKNLLSAADIAQLHDELLEESVVAEIVDEYWPQLTPQDTLTSLLESQNMISTVAYDYDEETQEALWRQQGSPWAASDAALLDELAVIIGVPDPEKERAEQEKAWREQIKDAQDALEILTGSANTDLDDESDAEILSAHDVIDAETLARRQEVRDIRSTAQRAREDLAWAYGHVIVDEAQELTPMEWRMVMRRCPSRWMTLVGDTAQTSSPAGVDSWAEALEPFVSGRYVTHHLTINYRTPAEIMEWANKVLHVFAPDAVGSTALRQSGTPVRFENSDAHAIEIAQKLRQDDPSRLTAIIGPDSMANNEIFGVSDIKGLEYDHVVVTNPIDIVNGSPQGWQDLYVALTRATQSLCIIGDLPELS, MIIAREKRRNNIAEYVLYMWQIEDLIRANELDMQRLRATVIAQYRQDTETTAEIDRWYAELVEMMLTEGVREQGHINIVRIAIMQMEEIHSRLMADPKEMIYQGLYYQVLPAIVQLRAKSAGSNTGEIETCLTAIYGLLTLRLQKKEVSEETLASIKQMSTLLSVLSEKFAAREEGTDEALL, MIIPALDLIDGTVVRLHQGDYARQRDYGNDPLPRLQDYAAQGAGVLHLVDLTGAKDPAKRQIPLIKTLVAGVNVPVQVGGGVRTEEDVAALLKAGVARVVIGSTAVKSPDVVKGWFERFGAQALVLALDVRIDEHGTKQVAVSGWQENSGVSLEQLVETYLPVGLKHVLCTDISRDGTLAGSNVSLYEEVCARYPQIAFQSSGGIGDIDDIAALRGTGVRGVIVGRALLEGKFTVKEAIQCWQNV, MIIPEYGRTLTPEEWRPVVDEMLEATHIIFTTHENSDGDGLGSQVALALALKALGKEVAIFNPTEVPPNYLFLKELHEINLFRDRDEESMQEFFLADLLVVLDANLHDRIGRLWPHVEFARQMSRLKVLCIDHHLEPEDFADITVCETYASSTGELVCDLVTALELRTGQQLFTPEVASALYAAIMTDTGSFRFPKTTPYTYRLAGMLVEKGADPELVYDRIYNAL, MIISAASDYRAAAQRTLPPFLFHYIDGGAYAEYTLRRNVEDLSQVALRQRVLKNMSDLSLETTLFNETLSMPVALAPVGLCGMYARRGEVQAAAAADAKGIPFTLSTVSVCPIEEVAPTIKRPMWFQLYVLRDRGFMRNALERAKAAGCSTLVFTVDMPTPGARYRDAHSGMSGPNAAMRRYWQAVMHPKWAWDVGLNGRPHDLGNISAYLGKPTGLEDYIGWLANNFDPSISWKDLEWIREFWDGPMVIKGILDPEDARDAVRFGADGIVVSNHGGRQLDGVLSSARALPAIADAVKGDIAILADSGIRNGLDVVRMIALGADTVLLGRAYLYALATAGKAGVANLLDLIEKEMKVAMTLTGAKSISEISGDSLVQELGKSLPAALAPMSKGDAA, MIITLFVMVSGNKVKYEGSGKSGLWMSNLEKSDKTSIGPNYFLNLYWQGSKKEEKWTVVERITLYVDGEKYQDDNVDEYDLSEYTGDEMPGGGRMEDHISTFDYMPEDEVIGHDVLVKVEWRTGQKKQTEAIKLHKKPWYKKLEHHHHHH, MIKIEINGIDEIIAKLNLIANKTENKTDLMRNIAGTMESAVQTNFEVGGRPKWLGIKHRKGVPLVDSENLMDSITSAYDNDTAFVGTNEEYAAIHQFGGMAGRGCKVKIEARPFLTLTEQDKSDILEEITDYWQRLLQ, MIKIYNGDKLTRQPFFIKLINYLQIHDDVTLRQIKRNFADTEHLERSIEDYVQAGYVLRENKHYYNAFELLENLDGLTLDSQIFVDDQSSIYQDLLALTFETYLSNQTNAALIIEKTDISRDALTLSNYFFKLNENFPLSRKQKPLYHLLGDVNPNYALKYMTTFLLKFWGKDVVKQKRPDIFVQALVLLGYLEQVGKQSYCLKMTFDKEKLIFAS
